Measured values: publication PMC12362098, “Dimerization of Cdc13 is essential for dynamic DNA exchange on telomeric DNA” (The Journal of Biological Chemistry, 2025)
Numbering of substitutions follows the chain as printed.

Columns and labels:
[1] = target: T1, Cdc13-L91R (Saccharomyces cerevisiae, UniProt P32797 1-924, L91R); assay: competition EMSA (DDE assay); EC50 for displacing 2 nM prebound IR800-Tel30G; 3.75 nM monomer; 30 C; 25 mM HEPES pH 8.0, 50 mM NaOAc, 150 mM NaCl, 7.5 mM MgCl2 (1x DNA-binding buffer); DDE incubation 30 C, 8% native gel; mass photometry at room temperature after 30 C incubation; BLI buffer details not in material; conditions: protein: recombinant; label: 5' IRDye700
T1 sequence: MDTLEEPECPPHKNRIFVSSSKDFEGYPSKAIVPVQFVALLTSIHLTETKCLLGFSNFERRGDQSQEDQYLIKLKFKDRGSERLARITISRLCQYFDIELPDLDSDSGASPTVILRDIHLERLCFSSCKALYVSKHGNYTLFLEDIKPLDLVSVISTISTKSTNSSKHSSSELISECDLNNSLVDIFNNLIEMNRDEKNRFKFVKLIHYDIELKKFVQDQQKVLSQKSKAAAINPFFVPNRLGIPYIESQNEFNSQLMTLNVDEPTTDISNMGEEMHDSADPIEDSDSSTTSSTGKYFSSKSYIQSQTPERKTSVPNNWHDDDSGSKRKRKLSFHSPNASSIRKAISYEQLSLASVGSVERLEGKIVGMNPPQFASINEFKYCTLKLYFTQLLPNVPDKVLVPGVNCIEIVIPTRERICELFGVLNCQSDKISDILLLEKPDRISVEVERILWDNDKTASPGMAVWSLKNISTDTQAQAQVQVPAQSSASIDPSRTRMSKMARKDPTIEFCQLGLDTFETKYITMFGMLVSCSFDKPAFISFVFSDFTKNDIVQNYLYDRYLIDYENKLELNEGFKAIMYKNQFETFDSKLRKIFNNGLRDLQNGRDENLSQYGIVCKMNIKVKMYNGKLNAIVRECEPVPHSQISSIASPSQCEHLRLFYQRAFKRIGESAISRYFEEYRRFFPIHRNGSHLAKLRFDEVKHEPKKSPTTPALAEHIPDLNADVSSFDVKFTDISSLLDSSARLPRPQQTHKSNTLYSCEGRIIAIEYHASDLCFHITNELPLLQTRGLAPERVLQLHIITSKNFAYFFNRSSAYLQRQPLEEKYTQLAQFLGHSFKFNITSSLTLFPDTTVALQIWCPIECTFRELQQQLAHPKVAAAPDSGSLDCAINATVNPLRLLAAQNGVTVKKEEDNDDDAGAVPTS

[2] = target: T2, Cdc13 WT (Saccharomyces cerevisiae, UniProt P32797 1-924); assay: competition EMSA (DDE assay); EC50 for displacing 2 nM prebound IR800-Tel30G; 3.75 nM dimer; 30 C; value introduced 'as reported (9)', assay also run here; 25 mM HEPES pH 8.0, 50 mM NaOAc, 150 mM NaCl, 7.5 mM MgCl2 (1x DNA-binding buffer); DDE incubation 30 C, 8% native gel; mass photometry at room temperature after 30 C incubation; BLI buffer details not in material; conditions: protein: recombinant; chain copies: 2; label: 5' IRDye700
T2 sequence: T1 sequence with R91L

[3] = target: T2, Cdc13 WT; assay: mass photometry; one and two dimers per ssDNA; binding buffer; 25 mM HEPES pH 8.0, 50 mM NaOAc, 150 mM NaCl, 7.5 mM MgCl2 (1x DNA-binding buffer); DDE incubation 30 C, 8% native gel; mass photometry at room temperature after 30 C incubation; BLI buffer details not in material; conditions: protein: recombinant; chain copies: 2
[4] = target: T1, Cdc13-L91R; assay: mass photometry; small population with two monomers per ssDNA; binding buffer; 25 mM HEPES pH 8.0, 50 mM NaOAc, 150 mM NaCl, 7.5 mM MgCl2 (1x DNA-binding buffer); DDE incubation 30 C, 8% native gel; mass photometry at room temperature after 30 C incubation; BLI buffer details not in material; conditions: protein: recombinant
[5] = target: the molecule itself; assay: mass photometry; Cdc13 alone diluted in PBS, 11.25 nM protein, room temperature

B1: IR700-Tel30G (ssDNA)
DNA: CGCCATGCTGATCCGTGTGGTGTGTGTGGG
[1]
  IC50: 31.6 nM
[2]
  IC50: 0.89 nM

B2: Tel50G (ssDNA)
DNA: GTGTGGGTGTGGTGTGGGTGTGGTGTGGGTGTGTGGGTGTGGTGTGGGTG
[3]
  binding result: binds
[4]
  binding result: binds

B3: Cdc13 (wild type, recombinant) (natural protein, S. cerevisiae, UniProt P32797 1-924, looked up)
chain: T1 sequence with R91L
notes: called full-length WT Cdc13 in the text; The vector encodes a 5'-SUMO-His6 tag and a 3'-FLAG tag for purification; The monomer mass seen was ~105 kDa; also called WT Cdc13
[5]
  stoichiometry N: 2
